# Measurements as given in article PMC5913336, “True equilibrium measurement of transcription factor-DNA binding affinities using automated polarization microscopy”.
# T1: Bicoid DBD-GST (Bcd) (UniProt P09081 83-170)
# T1 sequence: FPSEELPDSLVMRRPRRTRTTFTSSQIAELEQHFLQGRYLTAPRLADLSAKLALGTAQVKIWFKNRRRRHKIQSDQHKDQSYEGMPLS
# B1: Bcd competitor 28 (C10G) (dsDNA)
# DNA 1: TCGACGGTAATCCGTA
# DNA 2: TACGGATTACGGTCGA
# B2: Bcd competitor 29 (C10T) (dsDNA)
# DNA 1: TCGACGGTAATCCTTA
# DNA 2: TAAGGATTACGGTCGA
# B3: Bcd competitor 13 (A5C) (dsDNA)
# DNA 1: TCGACGGTCATCCCTA
# DNA 2: TAGGGATGACGGTCGA
# B4: Bcd competitor 15 (A5T) (dsDNA)
# DNA 1: TCGACGGTTATCCCTA
# DNA 2: TAGGGATAACGGTCGA
# B5: Bcd competitor 26 (C9T) (dsDNA)
# DNA 1: TCGACGGTAATCTCTA
# DNA 2: TAGAGATTACGGTCGA
# B6: Bcd competitor 16 (A6C) (dsDNA)
# DNA 1: TCGACGGTACTCCCTA
# DNA 2: TAGGGAGTACGGTCGA
# B7: Bcd competitor 25 (C9G) (dsDNA)
# DNA 1: TCGACGGTAATCGCTA
# DNA 2: TAGCGATTACGGTCGA
# B8: Bcd competitor 19 (T7C) (dsDNA)
# DNA 1: TCGACGGTAACCCCTA
# DNA 2: TAGGGGTTACGGTCGA
# B9: Bcd competitor 17 (A6G) (dsDNA)
# DNA 1: TCGACGGTAGTCCCTA
# DNA 2: TAGGGACTACGGTCGA
# B10: Bcd competitor 23 (C8T) (dsDNA)
# DNA 1: TCGACGGTAATTCCTA
# DNA 2: TAGGAATTACGGTCGA
# B11: Bcd competitor 24 (C8A) (dsDNA)
# DNA 1: TCGACGGTAATACCTA
# DNA 2: TAGGTATTACGGTCGA
# B12: Bcd competitor 1 (C1G) (dsDNA)
# DNA 1: TCGAGGGTAATCCCTA
# DNA 2: TAGGGATTACGCTCGA
# B13: Bcd competitor 22 (C8G) (dsDNA)
# DNA 1: TCGACGGTAATGCCTA
# DNA 2: TAGGCATTACGGTCGA
# B14: Bcd competitor 27 (C9A) (dsDNA)
# DNA 1: TCGACGGTAATCACTA
# DNA 2: TAGTGATTACGGTCGA
# B15: Bcd competitor 14 (A5G) (dsDNA)
# DNA 1: TCGACGGTGATCCCTA
# DNA 2: TAGGGATCACGGTCGA
# B16: Bcd competitor 20 (T7G) (dsDNA)
# DNA 1: TCGACGGTAAGCCCTA
# DNA 2: TAGGGCTTACGGTCGA
# B17: Bcd competitor 18 (A6T) (dsDNA)
# DNA 1: TCGACGGTATTCCCTA
# DNA 2: TAGGGAATACGGTCGA
# B18: Bcd competitor 30 (C10A) (dsDNA)
# DNA 1: TCGACGGTAATCCATA
# DNA 2: TATGGATTACGGTCGA
# B19: Bcd competitor 21 (T7A) (dsDNA)
# DNA 1: TCGACGGTAAACCCTA
# DNA 2: TAGGGTTTACGGTCGA
# Legend:
# Details in all cases: protein: recombinant; tags: N-terminal GST; blunt, G:G mismatch at position 6
# Bicoid DBD-GST (Bcd) [1] = target: T1, Bicoid DBD-GST (Bcd); assay: competitive fluorescence anisotropy (HiP-FA); mean of replicates 3.661, 3.6795; HiP-FA: 33 mM phosphate pH 7.0, 90 mM NaCl, 0.01% Tween 20, 0.1 mM DTT, 0.5% agarose; conventional titration and EMSA: 20 mM Tris-acetate pH 7.0, 50 nM (sic) NaCl, 0.01% Tween-20, 0.1 mM DTT
# Bicoid DBD-GST (Bcd) [2] = target: T1, Bicoid DBD-GST (Bcd); assay: competitive fluorescence anisotropy (HiP-FA); mean of replicates 3.19, 4.8725; HiP-FA: 33 mM phosphate pH 7.0, 90 mM NaCl, 0.01% Tween 20, 0.1 mM DTT, 0.5% agarose; conventional titration and EMSA: 20 mM Tris-acetate pH 7.0, 50 nM (sic) NaCl, 0.01% Tween-20, 0.1 mM DTT
# Bicoid DBD-GST (Bcd) [3] = target: T1, Bicoid DBD-GST (Bcd); assay: competitive fluorescence anisotropy (HiP-FA); mean of replicates 63.883, 64.716; HiP-FA: 33 mM phosphate pH 7.0, 90 mM NaCl, 0.01% Tween 20, 0.1 mM DTT, 0.5% agarose; conventional titration and EMSA: 20 mM Tris-acetate pH 7.0, 50 nM (sic) NaCl, 0.01% Tween-20, 0.1 mM DTT
# Bicoid DBD-GST (Bcd) [4] = target: T1, Bicoid DBD-GST (Bcd); assay: competitive fluorescence anisotropy (HiP-FA); mean of replicates 29.656, 29.169; HiP-FA: 33 mM phosphate pH 7.0, 90 mM NaCl, 0.01% Tween 20, 0.1 mM DTT, 0.5% agarose; conventional titration and EMSA: 20 mM Tris-acetate pH 7.0, 50 nM (sic) NaCl, 0.01% Tween-20, 0.1 mM DTT
# Bicoid DBD-GST (Bcd) [5] = target: T1, Bicoid DBD-GST (Bcd); assay: competitive fluorescence anisotropy (HiP-FA); mean of replicates 8.014, 7.5595; HiP-FA: 33 mM phosphate pH 7.0, 90 mM NaCl, 0.01% Tween 20, 0.1 mM DTT, 0.5% agarose; conventional titration and EMSA: 20 mM Tris-acetate pH 7.0, 50 nM (sic) NaCl, 0.01% Tween-20, 0.1 mM DTT
# Bicoid DBD-GST (Bcd) [6] = target: T1, Bicoid DBD-GST (Bcd); assay: competitive fluorescence anisotropy (HiP-FA); mean of replicates 143.671, 148.3805; HiP-FA: 33 mM phosphate pH 7.0, 90 mM NaCl, 0.01% Tween 20, 0.1 mM DTT, 0.5% agarose; conventional titration and EMSA: 20 mM Tris-acetate pH 7.0, 50 nM (sic) NaCl, 0.01% Tween-20, 0.1 mM DTT
# Bicoid DBD-GST (Bcd) [7] = target: T1, Bicoid DBD-GST (Bcd); assay: competitive fluorescence anisotropy (HiP-FA); mean of replicates 14.726, 13.4865; HiP-FA: 33 mM phosphate pH 7.0, 90 mM NaCl, 0.01% Tween 20, 0.1 mM DTT, 0.5% agarose; conventional titration and EMSA: 20 mM Tris-acetate pH 7.0, 50 nM (sic) NaCl, 0.01% Tween-20, 0.1 mM DTT
# Bicoid DBD-GST (Bcd) [8] = target: T1, Bicoid DBD-GST (Bcd); assay: competitive fluorescence anisotropy (HiP-FA); mean of replicates 94.126, 94.115; HiP-FA: 33 mM phosphate pH 7.0, 90 mM NaCl, 0.01% Tween 20, 0.1 mM DTT, 0.5% agarose; conventional titration and EMSA: 20 mM Tris-acetate pH 7.0, 50 nM (sic) NaCl, 0.01% Tween-20, 0.1 mM DTT
# Bicoid DBD-GST (Bcd) [9] = target: T1, Bicoid DBD-GST (Bcd); assay: competitive fluorescence anisotropy (HiP-FA); mean of replicates 45.665, 45.961; HiP-FA: 33 mM phosphate pH 7.0, 90 mM NaCl, 0.01% Tween 20, 0.1 mM DTT, 0.5% agarose; conventional titration and EMSA: 20 mM Tris-acetate pH 7.0, 50 nM (sic) NaCl, 0.01% Tween-20, 0.1 mM DTT
# Bicoid DBD-GST (Bcd) [10] = target: T1, Bicoid DBD-GST (Bcd); assay: competitive fluorescence anisotropy (HiP-FA); mean of replicates 28.134, 26.319; HiP-FA: 33 mM phosphate pH 7.0, 90 mM NaCl, 0.01% Tween 20, 0.1 mM DTT, 0.5% agarose; conventional titration and EMSA: 20 mM Tris-acetate pH 7.0, 50 nM (sic) NaCl, 0.01% Tween-20, 0.1 mM DTT
# Bicoid DBD-GST (Bcd) [11] = target: T1, Bicoid DBD-GST (Bcd); assay: competitive fluorescence anisotropy (HiP-FA); mean of replicates 49.725, 45.8965; HiP-FA: 33 mM phosphate pH 7.0, 90 mM NaCl, 0.01% Tween 20, 0.1 mM DTT, 0.5% agarose; conventional titration and EMSA: 20 mM Tris-acetate pH 7.0, 50 nM (sic) NaCl, 0.01% Tween-20, 0.1 mM DTT
# Bicoid DBD-GST (Bcd) [12] = target: T1, Bicoid DBD-GST (Bcd); assay: competitive fluorescence anisotropy (HiP-FA); mean of replicates 2.804, 2.596; HiP-FA: 33 mM phosphate pH 7.0, 90 mM NaCl, 0.01% Tween 20, 0.1 mM DTT, 0.5% agarose; conventional titration and EMSA: 20 mM Tris-acetate pH 7.0, 50 nM (sic) NaCl, 0.01% Tween-20, 0.1 mM DTT
# Bicoid DBD-GST (Bcd) [13] = target: T1, Bicoid DBD-GST (Bcd); assay: competitive fluorescence anisotropy (HiP-FA); mean of replicates 92.598, 91.655; HiP-FA: 33 mM phosphate pH 7.0, 90 mM NaCl, 0.01% Tween 20, 0.1 mM DTT, 0.5% agarose; conventional titration and EMSA: 20 mM Tris-acetate pH 7.0, 50 nM (sic) NaCl, 0.01% Tween-20, 0.1 mM DTT
# Bicoid DBD-GST (Bcd) [14] = target: T1, Bicoid DBD-GST (Bcd); assay: competitive fluorescence anisotropy (HiP-FA); mean of replicates 12.922, 12.5195; HiP-FA: 33 mM phosphate pH 7.0, 90 mM NaCl, 0.01% Tween 20, 0.1 mM DTT, 0.5% agarose; conventional titration and EMSA: 20 mM Tris-acetate pH 7.0, 50 nM (sic) NaCl, 0.01% Tween-20, 0.1 mM DTT
# Bicoid DBD-GST (Bcd) [15] = target: T1, Bicoid DBD-GST (Bcd); assay: competitive fluorescence anisotropy (HiP-FA); mean of replicates 8.833, 9.124; HiP-FA: 33 mM phosphate pH 7.0, 90 mM NaCl, 0.01% Tween 20, 0.1 mM DTT, 0.5% agarose; conventional titration and EMSA: 20 mM Tris-acetate pH 7.0, 50 nM (sic) NaCl, 0.01% Tween-20, 0.1 mM DTT
# Bicoid DBD-GST (Bcd) [16] = target: T1, Bicoid DBD-GST (Bcd); assay: competitive fluorescence anisotropy (HiP-FA); mean of replicates 19.276, 18.3665; HiP-FA: 33 mM phosphate pH 7.0, 90 mM NaCl, 0.01% Tween 20, 0.1 mM DTT, 0.5% agarose; conventional titration and EMSA: 20 mM Tris-acetate pH 7.0, 50 nM (sic) NaCl, 0.01% Tween-20, 0.1 mM DTT
# Bicoid DBD-GST (Bcd) [17] = target: T1, Bicoid DBD-GST (Bcd); assay: competitive fluorescence anisotropy (HiP-FA); mean of replicates 133.924, 123.07; HiP-FA: 33 mM phosphate pH 7.0, 90 mM NaCl, 0.01% Tween 20, 0.1 mM DTT, 0.5% agarose; conventional titration and EMSA: 20 mM Tris-acetate pH 7.0, 50 nM (sic) NaCl, 0.01% Tween-20, 0.1 mM DTT
# Bicoid DBD-GST (Bcd) [18] = target: T1, Bicoid DBD-GST (Bcd); assay: competitive fluorescence anisotropy (HiP-FA); mean of replicates 4.834, 5.5235; HiP-FA: 33 mM phosphate pH 7.0, 90 mM NaCl, 0.01% Tween 20, 0.1 mM DTT, 0.5% agarose; conventional titration and EMSA: 20 mM Tris-acetate pH 7.0, 50 nM (sic) NaCl, 0.01% Tween-20, 0.1 mM DTT
# Bicoid DBD-GST (Bcd) [19] = target: T1, Bicoid DBD-GST (Bcd); assay: competitive fluorescence anisotropy (HiP-FA); mean of replicates 49.501, 48.184; HiP-FA: 33 mM phosphate pH 7.0, 90 mM NaCl, 0.01% Tween 20, 0.1 mM DTT, 0.5% agarose; conventional titration and EMSA: 20 mM Tris-acetate pH 7.0, 50 nM (sic) NaCl, 0.01% Tween-20, 0.1 mM DTT
binder,measurement,setting,value
B1,Kd,Bicoid DBD-GST (Bcd) [1],3.67 nM
B2,Kd,Bicoid DBD-GST (Bcd) [2],4.03 nM
B3,Kd,Bicoid DBD-GST (Bcd) [3],64.3 nM
B4,Kd,Bicoid DBD-GST (Bcd) [4],29.4 nM
B5,Kd,Bicoid DBD-GST (Bcd) [5],7.79 nM
B6,Kd,Bicoid DBD-GST (Bcd) [6],146 nM
B7,Kd,Bicoid DBD-GST (Bcd) [7],14.1 nM
B8,Kd,Bicoid DBD-GST (Bcd) [8],94.1 nM
B9,Kd,Bicoid DBD-GST (Bcd) [9],45.8 nM
B10,Kd,Bicoid DBD-GST (Bcd) [10],27.2 nM
B11,Kd,Bicoid DBD-GST (Bcd) [11],47.8 nM
B12,Kd,Bicoid DBD-GST (Bcd) [12],2.7 nM
B13,Kd,Bicoid DBD-GST (Bcd) [13],92.1 nM
B14,Kd,Bicoid DBD-GST (Bcd) [14],12.7 nM
B15,Kd,Bicoid DBD-GST (Bcd) [15],8.98 nM
B16,Kd,Bicoid DBD-GST (Bcd) [16],18.8 nM
B17,Kd,Bicoid DBD-GST (Bcd) [17],128 nM
B18,Kd,Bicoid DBD-GST (Bcd) [18],5.18 nM
B19,Kd,Bicoid DBD-GST (Bcd) [19],48.8 nM
